The source of these data is patent US20220002357A1.

Assay [1] addresses µ-opioid receptor (MOR) fused to Gαi1 protein (MOR-Gi1) (human) (UniProt P63096). Description: ADSoRB radiotracer elution from microsomal membranes with GPPNHP, scintillation counting (FIG. 2B).
For assay [2] the target is unchanged. Kind of assay: ADSoRB radiotracer elution from microsomal membranes with buffer control, scintillation counting (FIG. 2B).
Assay [3] has as its target mu-opioid receptor unfused (MOR). Description: ADSoRB radiotracer elution from microsomal membranes with GPPNHP, scintillation counting.
Assay [4] concerns the target mu-opioid receptor fused to Gαi1-RLuc8 chimera (MOR-Gi1RLuc) (human) (UniProt P63096). The assay is described as above.
Assay [5] deals with mu-opioid receptor unfused (MOR). Kind of assay: ADSoRB radiotracer adsorption to microsomal membranes, scintillation counting.
Assay [6] deals with mu-opioid receptor fused to Gαi1-RLuc8 chimera (MOR-Gi1RLuc) (human) (UniProt P63096). The description is as above.
Another assay addresses neurotensin receptor. Description: cell-based or functional assay.

Chain of mu-opioid receptor fused to Gαi1-RLuc8 chimera (MOR-Gi1RLuc) (human) (P63096 whole entry, change not shown, the tested form may be a part): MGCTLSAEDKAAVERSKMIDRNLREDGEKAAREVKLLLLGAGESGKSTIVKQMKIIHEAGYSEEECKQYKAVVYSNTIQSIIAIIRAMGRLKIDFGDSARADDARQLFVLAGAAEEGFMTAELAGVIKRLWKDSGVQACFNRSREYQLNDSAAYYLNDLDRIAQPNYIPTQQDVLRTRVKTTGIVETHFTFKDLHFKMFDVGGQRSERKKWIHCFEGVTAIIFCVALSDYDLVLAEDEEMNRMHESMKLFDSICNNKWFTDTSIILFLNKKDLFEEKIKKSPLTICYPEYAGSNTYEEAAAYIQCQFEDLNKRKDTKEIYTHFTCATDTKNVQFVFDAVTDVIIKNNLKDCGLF
Chain of µ-opioid receptor (MOR) fused to Gαi1 protein (MOR-Gi1) (human) (P63096 whole entry, the tested form may be a part): as the sequence (P63096 whole entry, change not shown, the tested form may be a part) above

In assay [1], [3H]DAMGO (peptide) yielded an elution upon complex dissociation/uncoupling with GPPNHP (% of total agonist added) (% of total agonist added) of 30. The substance further returned an elution with buffer control (% of total agonist added) (% of total agonist added) in assay [2] of 2. Also, the fraction of agonist eluted upon GPPNHP treatment (% of total agonist) (% of total agonist) was 0.8 in assay [3] and 7 in assay [4]. For the same substance, the unbound tracer (%) (% unbound tracer) in assay [5] was 67; in assay [6], 23.
As to “neurotensin peptide (8-13) (from UniProt P30990 31-36)”, in the assay with neurotensin receptor, the NET BRET response at GαZ, 96-well plate came out at 0.495; the NET BRET response at GαZ, 384-well plate amounted to 0.625; the Neurotensin potency, GαZ-114-Rluc8/Gβ3γ1-GFP2 BRET biosensor, 96-well plate was 1.85 nM; the Neurotensin potency, GαZ-114-Rluc8/Gβ3γ1-GFP2 BRET biosensor, 384-well plate turned out to be 1.68 nM.
